Among the data in publication PMC9443353 are binding signal (ratio ZIKV NS1/DENV2 NS1 bound) and binding signal (ratio ZIKV NS1/DENV4 NS1 bound) values, retold here.

For data set [1], the target named is T1, DENV2 NS1 (Dengue virus serotype 2) (UniProt Q9WDA6).
T1 sequence: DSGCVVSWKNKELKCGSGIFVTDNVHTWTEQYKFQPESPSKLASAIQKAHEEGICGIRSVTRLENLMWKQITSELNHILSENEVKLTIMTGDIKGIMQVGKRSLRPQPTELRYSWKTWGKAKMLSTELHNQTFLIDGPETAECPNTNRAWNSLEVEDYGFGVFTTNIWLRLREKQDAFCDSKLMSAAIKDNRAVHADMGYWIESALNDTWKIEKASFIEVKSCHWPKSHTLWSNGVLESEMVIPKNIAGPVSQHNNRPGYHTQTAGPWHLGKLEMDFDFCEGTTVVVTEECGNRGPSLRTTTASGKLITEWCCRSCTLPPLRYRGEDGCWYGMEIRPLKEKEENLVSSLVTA
Kind of data set: filter binding with qPCR. On the technique in general: Quantitative PCR measures a nucleic acid by following its amplification.

Data set [2] concerns the target T2, DENV4 NS1 (Dengue virus serotype 4) (UniProt Q2YHF0).
T2 sequence: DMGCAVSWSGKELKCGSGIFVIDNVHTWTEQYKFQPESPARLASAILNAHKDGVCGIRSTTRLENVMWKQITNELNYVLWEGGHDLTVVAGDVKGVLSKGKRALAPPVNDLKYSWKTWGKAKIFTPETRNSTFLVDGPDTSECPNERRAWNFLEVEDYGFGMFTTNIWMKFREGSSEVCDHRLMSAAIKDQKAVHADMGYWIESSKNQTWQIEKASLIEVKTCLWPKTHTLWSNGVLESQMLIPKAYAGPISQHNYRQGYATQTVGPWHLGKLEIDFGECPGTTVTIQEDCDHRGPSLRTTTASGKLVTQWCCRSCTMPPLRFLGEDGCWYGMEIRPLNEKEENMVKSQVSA
The experiment in a line: filter binding with qPCR. As to conditions: ELONA: borate buffer (60 mM in selection), 37 °C, 30 min, pH not stated; specificity: selection buffer, filtration, qPCR; FET: human serum as gate electrolyte ….

In the case of “CTTCTGCCCGCCTCCTTCCGGGCCCCGGGGGGTGTCCAGGCCCATGCGTCGTCCGCGGGGAGACGAGATAGGCGGACACT [ZIKV60]”, the binding signal (ratio ZIKV NS1/DENV2 NS1 bound) in data set [1] was determined as 14.8. In addition, the binding signal (ratio ZIKV NS1/DENV4 NS1 bound) in data set [2] was found to be 14.8.
